Earlier results, collected in paper PMC7811009, “Oxytocin modulates local topography of human functional connectome in healthy men at rest” (Communications Biology, 2021).

How the values were obtained:
[1] = intravenous infusion, primates; cited from earlier work
Excerpt: It is not yet clear which precise mechanisms mediate the effects of intravenous oxytocin on brain function. […] At least three mechanisms have been postulated. First, it is possible that the direct peripheral effects of oxytocin on oxytocin receptors expressed in vegetative territories, such as the heart, may be an indirect source of changes in the brain.

[2] = rhesus monkeys, cited from earlier work
Excerpt: Our findings support our previous observations that increases in oxytocin in systemic circulation cannot fully account for the changes in rCBF observed after intranasal oxytocin[11] and lend support to the contribution of nose-to-brain pathways to the effects of intranasal oxytocin on brain function. However, they cannot highlight the precise mechanisms of transport underlying its functional effects. We believe that most evidence to date concurs on the idea that oxytocin, when administered intranasally, may diffuse from the olfactory and respiratory epithelia in the middle and upper poster ...

For “labelled synthetic oxytocin: labelled synthetic oxytocin given intravenously or intranasally to primates / rhesus monkeys in cited studies”, the “Synthetic oxytocin levels in the CSF” value [1] is listed as “increased synthetic oxytocin levels in the CSF”, the Brain regions reached ([2]; administered intranasally) is listed as “reaches several brain regions (orbitofrontal cortex, striatum, thalamus and brainstem)” and the “Labelled oxytocin in brain regions (orbitofrontal cortex, striatum, thalamus and brainstem)” value ([2]; same doses administered intravenously) is listed as “No detectable amounts”.
